Data from the Human Domainome abundance scans (Beltran et al. 2025).
± gives the uncertainty stated by the source.

B1: Serine/threonine-protein kinase A-Raf, residues 21 to 89; numbered along this chain, P10398 (parent)
chain: VKVYLPNKQRTVVTVRDGMSVYDSLDKALKVRGLNQDCCVVYRLIKGRKTVTAWDTAIAPLDGEELIVE

Variants of: B1
Test: abundance fitness (aPCA) (normalised: wild type 0, dead -1); higher = more abundant; growth selection in yeast, the domain comes from the species named
Details: Homo sapiens

Row | Variant | abundance fitness
1 | VKVYLPNKQRTVVTVRDGMSVYDSLDKALKVRGLNQDCCVVYRLIKGRKTVTAWDTAIAPLDGEELIAE | -0.391 ± 0.41
2 | VKVYLPNKQRTVVTVRDGMSVYDSLDKALKVRGLNQDCCVVYRLIKGRKTVTAWDTAIAPLDGEELIIE | -0.127 ± 0.22
3 | VKVYLPNKQRTVVTVRDGMSVYDSLDKALKVRGLNQDCCVVYRLIKGRKTVTAWDTAIAPLDGEVLIVE | -0.077 ± 0.063
4 | VKVYLPNKQRTVVTVRDGMSVYDSLDKALKVRGLNQDCCVVYRLIKGRKTVTAWDTAIAPLDGEILIVE | -0.088 ± 0.45
5 | VKVYLPNKQRTVVTVRDGMSVYDSLDKALKVRGLNQDCCVVYRLIKGRKTVTAWDTAIAPLDGELLIVE | -0.349 ± 0.1
6 | VKVYLPNKQRTVVTVRDGMSVYDSLDKALKVRGLNQDCCVVYRLIKGRKTVTAWDTAIAPLDGETLIVE | -0.01 ± 0.097
7 | VKVYLPNKQRTVVTVRDGMSVYDSLDKALKVRGLNQDCCVVYRLIKGRKTVTAWDTAIAPLDGEDLIVE | -0.136 ± 0.081
8 | VKVYLPNKQRTVVTVRDGMSVYDSLDKALKVRGLNQDCCVVYRLIKGRKTVTAWDTAIAPLDGEFLIVE | -0.607 ± 0.25
9 | VKVYLPNKQRTVVTVRDGMSVYDSLDKALKVRGLNQDCCVVYRLIKGRKTVTAWDTAIAPLDGEQLIVE | -0.184 ± 0.14
10 | VKVYLPNKQRTVVTVRDGMSVYDSLDKALKVRGLNQDCCVVYRLIKGRKTVTAWDTAIAPLDGEPLIVE | -0.26 ± 0.12
11 | VKVYLPNKQRTVVTVRDGMSVYDSLDKALKVRGLNQDCCVVYRLIKGRKTVTAWDTAIAPLDGESLIVE | -0.124 ± 0.092
12 | VKVYLPNKQRTVVTVRDGMSVYDSLDKALKVRGLNQDCCVVYRLIKGRKTVTAWDTAIAPLDGEGLIVE | -0.294 ± 0.072
13 | VKVYLPNKQRTVVTVRDGMSVYDSLDKALKVRGLNQDCCVVYRLIKGRKTVTAWDTAIAPLDGERLIVE | -0.385 ± 0.059
14 | VKVYLPNKQRTVVTVRDGMSVYDSLDKALKVRGLNQDCCVVYRLIKGRKTVTAWDTAIAPLDGEALIVE | -0.044 ± 0.078
15 | VKVYLPNKQRTVVTVRDGMSVYDSLDKALKVRGLNQDCCVVYRLIKGRKTVTAWDTAIAPLDGECLIVE | -0.122 ± 0.14
16 | VKVYLPNKQRTVVTVRDGMSVYDSLDKALKVRGLNQDCCVVYRLIKGRKTVTAWDTAIAPLDGEKLIVE | -0.122 ± 0.071
17 | VKVYLPNKQRTVVTVRDGMSVYDSLDKALKVRGLNQDCCVVYRLIKGRKTVTAWDTAIAPLDGEYLIVE | -0.305 ± 0.19
18 | VKVYLPNKQRTVVTVRDGMSVYDSLDKALKVRGLNQDCCVVYRLIKGRKTVTAWDTAIAPLDGEMLIVE | -0.34 ± 0.13
19 | VKVYLPNKQRTVVTVRDGMSVYDSLDKALKVRGLNQDCCVVYRLIKGRKTVTAWDTAIAPLDGEWLIVE | -0.515 ± 0.18
20 | VKVYLPNKQRTVVTVRDGMSVYDSLDKALKVRGLNQDCCVVYRLIKGRKTVTAWDTAIAPLDGCELIVE | -0.571 ± 0.21
21 | VKVYLPNKQRTVVTVRDGMSVYDSLDKALKVRGLNQDCCVVYRLIKGRKTVTAWDTAIAPLDGKELIVE | -0.295 ± 0.1
22 | VKVYLPNKQRTVVTVRDGMSVYDSLDKALKVRGLNQDCCVVYRLIKGRKTVTAWDTAIAPLDGWELIVE | -0.215 ± 0.12
23 | VKVYLPNKQRTVVTVRDGMSVYDSLDKALKVRGLNQDCCVVYRLIKGRKTVTAWDTAIAPLDGNELIVE | -0.026 ± 0.35
24 | VKVYLPNKQRTVVTVRDGMSVYDSLDKALKVRGLNQDCCVVYRLIKGRKTVTAWDTAIAPLDGVELIVE | -0.259 ± 0.12

Row | Variant | abundance fitness
25 | VKVYLPNKQRTVVTVRDGMSVYDSLDKALKVRGLNQDCCVVYRLIKGRKTVTAWDTAIAPLDGSELIVE | -0.112 ± 0.08
26 | VKVYLPNKQRTVVTVRDGMSVYDSLDKALKVRGLNQDCCVVYRLIKGRKTVTAWDTAIAPLDGGELIVE | -0.25 ± 0.088
27 | VKVYLPNKQRTVVTVRDGMSVYDSLDKALKVRGLNQDCCVVYRLIKGRKTVTAWDTAIAPLDGLELIVE | -0.01 ± 0.048
28 | VKVYLPNKQRTVVTVRDGMSVYDSLDKALKVRGLNQDCCVVYRLIKGRKTVTAWDTAIAPLDGMELIVE | -0.085 ± 0.1
29 | VKVYLPNKQRTVVTVRDGMSVYDSLDKALKVRGLNQDCCVVYRLIKGRKTVTAWDTAIAPLDGTELIVE | -0.006 ± 0.13
30 | VKVYLPNKQRTVVTVRDGMSVYDSLDKALKVRGLNQDCCVVYRLIKGRKTVTAWDTAIAPLDGHELIVE | -0.339 ± 0.18
31 | VKVYLPNKQRTVVTVRDGMSVYDSLDKALKVRGLNQDCCVVYRLIKGRKTVTAWDTAIAPLDGAELIVE | -0.206 ± 0.16
32 | VKVYLPNKQRTVVTVRDGMSVYDSLDKALKVRGLNQDCCVVYRLIKGRKTVTAWDTAIAPLDGFELIVE | -0.867 ± 0.28
33 | VKVYLPNKQRTVVTVRDGMSVYDSLDKALKVRGLNQDCCVVYRLIKGRKTVTAWDTAIAPLDGEELIVQ | -0.6 ± 0.17
34 | VKVYLPNKQRTVVTVRDGMSVYDSLDKALKVRGLNQDCCVVYRLIKGRKTVTAWDTAIAPLDGEELIVK | -0.6 ± 0.4
35 | VKVYLPNKQRTVVTVRDGMSVYDSLDKALKVRGLNQDCCVVYRLIKGRKTVTAWDTAIAPLDGEELIVM | -0.682 ± 0.21
36 | VKVYLPNKQRTVVTVRDGMSVYDSLDKALKVRGLNQDCCVVYRLIKGRKTVTAWDTAIAPLDGEELIVR | -0.635 ± 0.19
37 | VKVYLPNKQRTVVTVRDGMSVYDSLDKALKVRGLNQDCCVVYRLIKGRKTVTAWDTAIAPLDGEELIVA | -0.497 ± 0.081
38 | VKVYLPNKQRTVVTVRDGMSVYDSLDKALKVRGLNQDCCVVYRLIKGRKTVTAWDTAIAPLDGEELIVP | -0.693 ± 0.17
39 | VKVYLPNKQRTVVTVRDGMSVYDSLDKALKVRGLNQDCCVVYRLIKGRKTVTAWDTAIAPLDGEELIVI | -0.81 ± 0.33
40 | VKVYLPNKQRTVVTVRDGMSVYDSLDKALKVRGLNQDCCVVYRLIKGRKTVTAWDTAIAPLDGEELIVL | -0.889 ± 0.18
41 | VKVYLPNKQRTVVTVRDGMSVYDSLDKALKVRGLNQDCCVVYRLIKGRKTVTAWDTAIAPLDGEELIVS | -0.463 ± 0.13
42 | VKVYLPNKQRTVVTVRDGMSVYDSLDKALKVRGLNQDCCVVYRLIKGRKTVTAWDTAIAPLDGEELIVY | -0.809 ± 0.17
43 | VKVYLPNKQRTVVTVRDGMSVYDSLDKALKVRGLNQDCCVVYRLIKGRKTVTAWDTAIAPLDGEELIVD | -0.248 ± 0.079
44 | VKVYLPNKQRTVVTVRDGMSVYDSLDKALKVRGLNQDCCVVYRLIKGRKTVTAWDTAIAPLDGEELIVN | -0.777 ± 0.21
45 | VKVYLPNKQRTVVTVRDGMSVYDSLDKALKVRGLNQDCCVVYRLIKGRKTVTAWDTAIAPLDGEELIVF | -0.884 ± 0.23
46 | VKVYLPNKQRTVVTVRDGMSVYDSLDKALKVRGLNQDCCVVYRLIKGRKTVTAWDTAIAPLDGEELIVV | -0.43 ± 0.098
47 | VKVYLPNKQRTVVTVRDGMSVYDSLDKALKVRGLNQDCCVVYRLIKGRKTVTAWDTAIAPLDGEELFVE | 0.252 ± 0.13
